Experimental data from publication PMC10558600 (Heliyon, 2023).
Read-outs that look alike come from different tables or passages of the source.

How the values were obtained:
Test in all cases: ELISA
[1] = biological target: T1, Cry4Ba-domain II fragment (Bacillus thuringiensis subsp. …, UniProt P05519 286-470)
T1 sequence: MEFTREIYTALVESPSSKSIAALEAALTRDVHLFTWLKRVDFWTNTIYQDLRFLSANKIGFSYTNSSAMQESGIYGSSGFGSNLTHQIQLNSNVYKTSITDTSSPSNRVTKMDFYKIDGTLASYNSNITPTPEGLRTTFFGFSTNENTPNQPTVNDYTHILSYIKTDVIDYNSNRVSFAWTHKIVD

[2] = biological target: T1, Cry4Ba-domain II fragment; remark: listed apart in the source
[3] = biological target: T2, Cry4Ba-domain III fragment (Bacillus thuringiensis subsp. …)
T2 sequence (P05519 whole entry, looked up): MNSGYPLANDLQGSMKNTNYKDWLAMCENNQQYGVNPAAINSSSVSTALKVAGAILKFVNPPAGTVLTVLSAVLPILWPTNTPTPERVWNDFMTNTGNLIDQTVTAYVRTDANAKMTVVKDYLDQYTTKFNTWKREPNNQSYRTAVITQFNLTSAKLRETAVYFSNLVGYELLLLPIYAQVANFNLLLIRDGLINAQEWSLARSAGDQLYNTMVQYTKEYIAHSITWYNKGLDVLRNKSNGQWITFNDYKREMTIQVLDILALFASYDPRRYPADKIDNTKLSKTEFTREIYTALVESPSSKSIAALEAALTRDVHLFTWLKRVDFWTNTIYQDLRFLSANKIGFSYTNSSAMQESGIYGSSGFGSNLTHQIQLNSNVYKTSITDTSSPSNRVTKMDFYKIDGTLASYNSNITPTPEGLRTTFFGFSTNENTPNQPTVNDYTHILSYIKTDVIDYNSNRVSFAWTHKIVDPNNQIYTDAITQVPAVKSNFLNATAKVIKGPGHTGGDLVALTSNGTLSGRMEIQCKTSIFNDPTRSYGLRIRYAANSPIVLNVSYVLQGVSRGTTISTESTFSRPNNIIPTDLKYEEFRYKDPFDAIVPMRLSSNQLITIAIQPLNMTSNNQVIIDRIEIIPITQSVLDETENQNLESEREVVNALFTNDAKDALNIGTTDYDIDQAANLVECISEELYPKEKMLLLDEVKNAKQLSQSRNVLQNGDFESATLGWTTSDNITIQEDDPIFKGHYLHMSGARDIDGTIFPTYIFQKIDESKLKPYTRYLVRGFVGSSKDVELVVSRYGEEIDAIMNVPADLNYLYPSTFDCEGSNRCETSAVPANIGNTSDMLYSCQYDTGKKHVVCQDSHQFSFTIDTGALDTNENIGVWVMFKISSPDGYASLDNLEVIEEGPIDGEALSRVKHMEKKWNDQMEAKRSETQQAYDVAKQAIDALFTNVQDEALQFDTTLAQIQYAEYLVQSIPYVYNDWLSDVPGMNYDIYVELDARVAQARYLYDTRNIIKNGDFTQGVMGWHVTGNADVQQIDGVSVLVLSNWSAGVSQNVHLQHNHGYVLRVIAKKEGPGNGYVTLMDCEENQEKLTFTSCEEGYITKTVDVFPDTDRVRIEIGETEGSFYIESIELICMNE

B1: Aedes aegypti membrane-bound alkaline phosphatase (Aa-mALP) (receptor)
chain: MTLYRSRAANMSRLRFDVSVWVMVTMCVLSARNCWAQGEYDPNYWNQQAHDLLFEKKDYTMQKVNIAKNIIVFVGSGMSQATVTAARTHKGGENATFPFEQLKWSGNARTYCVDSRVPDSACASTAFLTGVKSNLGTVAVHPNVKRGDCVATSDKVKQLESIAKWALAEGRVVGFATTSRVTAGSNAALYAHSADKDWENDASVTAAGCNATQVNDIAYQLINGDVGKHFKVIFGGGRKNFIPNTETDESGARGLRTDGKNLIQEWKESKTGNAVYITTNSELGALNTTNIDYLMGLFSYDRLPYAADMGEEPNKETPPLVRMVHYSLEMLQKKEHSGGFLLFVEDGNIQEAHKENKPIKAFEQVKHYANAFNMAHMMVSEANTLLISMNDVGSTLSIPGYPARDTDILTEAGTSDKDSKPYLSLAYATGPSYDSYYQPNEGRVNPLAVLQGTPTQKEQTCSAAVPMSEGVNGGEDASVYATGPWAFMFSGGYEQNFIAHAISFASCITDVCGGASSVVVSSAALLLALMVRVFA
B1 gave a Kd [1] of 116 nM, a Kd [2] of 118 nM and a Kd [3] of 118 ± 8.1 nM.
